The values below come from the supplement of paper PMC12042874.

± gives the uncertainty stated by the source.

A short description of the data set: amyloid nucleation score (Sup35N fusion, yeast selection) (log enrichment); library NNK1; higher = more nucleation; inactive = no reads after selection. In short, it runs like this: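 Growth for 7 days at 30°C on medium lacking adenine and uracil followed a 24-hour induction with 100 μM copper sulfate of psi-negative yeast expressing peptides of 20 random codons fused to Sup35N. Input and output plasmid inserts were sequenced with Illumina, and sequences with under 100 input reads were excluded. Nucleation score is the DiMSum log enrichment of output over input reads, centred on the mode score of non-aggregating sequences.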
Turning to TRRVWLQCLMLSYMAVYISM, the amyloid nucleation score was 0.044 ± 1.1.

Consider TRVKQMEVVSWTRHHWPRCF, for which the amyloid nucleation score was -0.623 ± 0.47.

For TRYGVYQYVVDSLINCHLLE, the amyloid nucleation score is -0.186 ± 0.52.

For TSCEGEDFGRKLSREMVLWC, the amyloid nucleation score is 0.234 ± 0.68.

As to TSCSLYIVMRCVWCIYRGAR, the amyloid nucleation score was -0.866 ± 2.4.

Consider TSCSVSLVWLFLGVRLCVLC, for which the amyloid nucleation score is -0.009 ± 0.24.

The substance TSDGVMMVR displayed an amyloid nucleation score of 0.564 ± 0.34.

TSFFFHEQHHFKGNKFNFEV: the amyloid nucleation score came to 3.5 ± 0.18.

With TSFYTGFWCPA, the amyloid nucleation score was -0.232 ± 0.57.

Take TSIFCGSLLGAKVDSTPVPV: the amyloid nucleation score is -1.27 ± 2.4.

TSLVVYYTSWV: the amyloid nucleation score is -1.55 ± 2.4.

On to TSPCYWNCI, for which the amyloid nucleation score entry is “inactive”.

In turn, TSQTMTCWGSAL registered an amyloid nucleation score of 0.93 ± 0.4.

For the substance TSRALRREIARLKAYGSMMV, the amyloid nucleation score result is “inactive”.

In the case of TSRNW, the amyloid nucleation score was -0.626 ± 1.1.

On to TSSEFDLLNGQFANGYVLVH, for which the amyloid nucleation score came to 0.546 ± 0.5.

Regarding TSSVYLWVSQCYGMNSLLNL, the amyloid nucleation score was -0.118 ± 0.75.

With TSSWQVPVNAPEVN, the amyloid nucleation score entry was “inactive”.

Regarding TSSYGCQHINVMCCRLQGDL, the amyloid nucleation score worked out at 7.444 ± 0.074.

TSTRRHYRVFARAQQEQNSP had an amyloid nucleation score of 0.869 ± 0.49.

In the case of TSTVVFFKFYLTKFWISVPT, the amyloid nucleation score turned out to be 1.28 ± 0.36.

For TSVDG, the amyloid nucleation score is 0.162 ± 0.28.

As for TSVDVFS, the amyloid nucleation score came out at 0.656 ± 0.62.

For the substance TSWFAFANWVLPSFHYTPVP, the amyloid nucleation score turned out to be 0.43 ± 0.43.

With TSWFSYRLANCAFHSQGFSR, the amyloid nucleation score was determined as 0.366 ± 0.38.

For the substance TSWGNVDGCYNGRTLVLLDF, the amyloid nucleation score is -0.316 ± 0.67.

Turning to TSYPSYVDFW, the amyloid nucleation score is 0.209 ± 0.58.

As for TTCVELYVWRGWRGAGGTGV, the amyloid nucleation score is -1.41 ± 2.4.

For TTEYRMLGYSVEHLQDCSDR, the amyloid nucleation score is -0.527 ± 0.54.

Regarding TTFSEVERLWGWSVFCNLST, the amyloid nucleation score stood at 0.723 ± 0.66.

For TTINIRYPIYSVVMCWYRLE, the amyloid nucleation score worked out at 5.513 ± 0.045.

With TTIRYNVLRAPMLCIIILMN, the amyloid nucleation score is -0.607 ± 0.58.

In the case of TTSVV, the amyloid nucleation score was -0.174 ± 1.2.

Take TTVKYLWLYLGFVLGQGVNG: the amyloid nucleation score was -0.303 ± 0.25.

Consider TVAFSVTTVDR, for which the amyloid nucleation score was -0.875 ± 2.4.

Take TVAGLT: the amyloid nucleation score was -0.224 ± 0.71.

For the substance TVCRSLSRLERHLR, the amyloid nucleation score is 0.068 ± 0.63.

As for TVFFDYDDIYLVNSVFRSAV, the amyloid nucleation score was -0.113 ± 0.44.

TVKCILYSRFHKGCGWRCER registered an amyloid nucleation score of 3.15 ± 0.14.

As for TVLSSFLLKLRLTIVSCFLR, the amyloid nucleation score is -0.082 ± 0.65.

With TVLTTTHFARSVFTLPGKSP, the amyloid nucleation score came to 2.89 ± 0.17.

In the case of TVLVYRGFTEGCSHFSWPSN, the amyloid nucleation score was 0.302 ± 0.8.

The substance TVQWAEN came in with an amyloid nucleation score of 0.292 ± 0.63.

With TVRLKLINRYPDENRLYTDH, the amyloid nucleation score is 1.3 ± 0.21.

Consider TVTWASGFMGGVDHCSWGQV, for which the amyloid nucleation score came to 0.043 ± 0.65.

In turn, TVVNSVGYYAPKLPSACLGN gave an amyloid nucleation score of 0.638 ± 0.31.

On to TWGRVFSLMAPFISRPCFWG, for which the amyloid nucleation score is -0.385 ± 0.34.

On to TWMLVEVVNCCLYTHVFYR, for which the amyloid nucleation score was determined as 4.27 ± 0.061.

For the substance TWRNNLKWHMYTYLLPAHIG, the amyloid nucleation score was -0.42 ± 0.46.

As to TWRQNSRGNRASNCYVRSLS, the amyloid nucleation score result was “inactive”.

TWSACICKRMVLPCDFQNGS returned an amyloid nucleation score of 0.808 ± 0.9.

As for TWSCMFLYYFTLWLCTS, the amyloid nucleation score result was “inactive”.

As to TWVMFDVWGRVDYER, the amyloid nucleation score was found to be 0.169 ± 0.4.

Consider TYANGGALALAIVAVKC, for which the amyloid nucleation score was -0.398 ± 0.64.

Regarding TYEPLTLMNGVLSVRSGPGI, the amyloid nucleation score was -0.508 ± 1.

Turning to TYFWGSLIPEWWLFELYPLE, the amyloid nucleation score was found to be 1.66 ± 0.32.

Turning to TYGDGEAE, the amyloid nucleation score result is “inactive”.

Turning to TYLFF, the amyloid nucleation score result is “inactive”.

With TYPYYVTVGGIS, the amyloid nucleation score stood at 0.113 ± 0.43.

Take TYSEVRGYLLSRFAEVIDS: the amyloid nucleation score result is “inactive”.

In the case of TYWMHCEWFSV, the amyloid nucleation score is -1.4 ± 2.7.

For the substance VAACLKNMIESVQSVKYIWR, the amyloid nucleation score amounted to 0.837 ± 0.93.

For the substance VAATDWVGNHKS, the amyloid nucleation score is 1.28 ± 0.55.

With VAATGNYIIIDNVRLVHAFG, the amyloid nucleation score is -0.987 ± 0.67.

As for VACNKLRYMCRCQYNMTVWF, the amyloid nucleation score was -0.262 ± 0.62.

For the substance VADFSL, the amyloid nucleation score was found to be 1.44 ± 0.53.

For VADGYIHARSCRYFKNIIVR, the amyloid nucleation score was -1 ± 1.2.

Substance VAFMDLTMRLDWGNFSNR registered an amyloid nucleation score of 4.34 ± 0.056.

VAISQCLNNSNSRNIIVVKW showed an amyloid nucleation score of 1.69 ± 0.34.

As to VARHGEGFNW, the amyloid nucleation score worked out at 0.446 ± 0.64.

The substance VARHISAVSAWGACYRWCFR yielded an amyloid nucleation score of 0.706 ± 0.51.

For the substance VAVQRPIFIVMWPQNLCISA, the amyloid nucleation score amounted to 3.69 ± 0.13.

In the case of VAVVLYAQTV, the amyloid nucleation score was -0.376 ± 0.63.

VCCGPSSEEP had an amyloid nucleation score of 0.384 ± 0.85.

For VCFVFMS, the amyloid nucleation score was -0.211 ± 0.41.

As to VCGFWVWLYVGVYSSIPNSM, the amyloid nucleation score is -0.015 ± 0.31.

VCISWLRDTGADC registered an amyloid nucleation score of 2.12 ± 0.23.

In the case of VCKGSHWFIYLRNGFKSPSV, the amyloid nucleation score is 1.46 ± 0.65.

For the substance VCKGVYNMPCSTPNLYDSAG, the amyloid nucleation score is -0.563 ± 0.79.

In the case of VCLPSGLFINLGVWYAAQHH, the amyloid nucleation score stood at 6.51 ± 0.069.

Substance VCLQW had an amyloid nucleation score of 0.386 ± 0.64.

Take VCLSC: the amyloid nucleation score worked out at 2.03 ± 0.41.

The substance VCRGGSSFLLNTKLVNT had an amyloid nucleation score of 0.675 ± 0.33.

For VCSKGACSLGDVNCDSTDVG, the amyloid nucleation score amounted to 0.104 ± 0.63.

VCSSLFSSCPL displayed an amyloid nucleation score of 0.735 ± 0.37.

As to VDHISCCVFVMAVHMELALR, the amyloid nucleation score was -1.07 ± 1.8.

As for VDLDSVR, the amyloid nucleation score is -0.236 ± 0.48.

Consider VDNMLPFMGDYWDLFYGFLL, for which the amyloid nucleation score was -0.217 ± 0.31.

As to VDRLNFLSLSYENFSGSSGE, the amyloid nucleation score is 4.7 ± 0.064.

As to VDRQFTDEFKVFTEGTKVDE, the amyloid nucleation score was -0.5 ± 1.4.

Turning to VDVAVVDTNLSLNMACKGWT, the amyloid nucleation score worked out at 1.21 ± 0.45.

For VDVRNWCIWDWKGLSAGVGG, the amyloid nucleation score is -0.643 ± 0.41.

Take VEDAIDACKFNCDSIDMTTD: the amyloid nucleation score is -0.206 ± 0.75.

VERLAT: the amyloid nucleation score was -0.259 ± 0.73.

VESFYVSIFGGGLRLKCSKS came in with an amyloid nucleation score of 0.514 ± 0.46.

Take VETSGVILVESWCFMLGIDV: the amyloid nucleation score was found to be 0.724 ± 0.75.

On to VFADVISIKMNCTLLTSILL, for which the amyloid nucleation score turned out to be 0.823 ± 0.37.

Consider VFESIVNGQVMMTLN, for which the amyloid nucleation score is -1.92 ± 2.4.

In the case of VFESWKFELRVWIVVTFLHG, the amyloid nucleation score stood at 0.21 ± 0.52.

For VFGVKVRDCASANGVFGWSS, the amyloid nucleation score was -0.14 ± 1.4.

As to VFGVVSFLHDFNFGKAYFAV, the amyloid nucleation score was found to be 0.191 ± 0.4.

Regarding VFIQMGHELDFQCEE, the amyloid nucleation score turned out to be 0.527 ± 0.63.

On to VFLIAWGLFSRMC, for which the amyloid nucleation score turned out to be 4.54 ± 0.11.

The substance VFLISY came in with an amyloid nucleation score of 0.199 ± 0.42.

For the substance VFLSADDVSGPRVDAVSGYS, the amyloid nucleation score is 0.713 ± 0.5.

Substance VFNCWCLTEFFVMYGIVCQK came in with an amyloid nucleation score of 4.52 ± 0.1.

VFNFT: the amyloid nucleation score is -0.816 ± 1.9.

For VFPALLNISRLISKTQCSQV, the amyloid nucleation score is -0.978 ± 0.99.

The substance VFRPGRSSDCNLSMLVQRVW came in with an amyloid nucleation score of 4.18 ± 0.088.

Take VFSKHRFSIYCSRYAEPTTR: the amyloid nucleation score was determined as 0.002 ± 0.31.

In turn, VFTLPLDWQKRCGYDSLRFP displayed an amyloid nucleation score of 0.018 ± 0.44.

As to VFTSAD, the amyloid nucleation score is 0.093 ± 0.39.

In the case of VGCKP, the amyloid nucleation score is -0.24 ± 0.75.

For the substance VGCLMWYALCGLE, the amyloid nucleation score came to 0.347 ± 0.5.

The substance VGCSRIDDPRSGAEALRSYC showed an amyloid nucleation score of 1.08 ± 0.78.

VGELYFIVWMDLLLVGWDGR gave an amyloid nucleation score of 0.897 ± 0.53.

In the case of VGHPKVFWDGVGSRTILERS, the amyloid nucleation score was found to be 0.48 ± 0.74.

Substance VGLDLALSYHFAQG gave an amyloid nucleation score of 4.8 ± 0.087.

Take VGLFVFSMSLGLAD: the amyloid nucleation score is -1.55 ± 0.51.

Turning to VGLINHYSSSNMLG, the amyloid nucleation score was 0.161 ± 0.62.

VGLLEAFMLRGDSRRCD: the amyloid nucleation score is -1.25 ± 2.1.

The substance VGLLMKTACSWAGSVTDRCM registered an amyloid nucleation score of 2.62 ± 0.14.

The substance VGLLSISLMYQRTASTGYFS registered an amyloid nucleation score of 0.615 ± 0.28.

As to VGMYGSVSFMS, the amyloid nucleation score is -1.02 ± 0.89.

VGQLSTFCLGILIVLSVN registered an amyloid nucleation score of 0.338 ± 0.18.

Turning to VGRLGVEG, the amyloid nucleation score is -0.305 ± 0.25.

With VGSLGM, the amyloid nucleation score is -0.221 ± 0.37.

As to VGTDLNETVG, the amyloid nucleation score was -0.646 ± 1.5.

Substance VGVRRDTCSPRQVLGHTS came in with an amyloid nucleation score of 0.301 ± 0.52.

Turning to VGWASQKINYWLETSGF, the amyloid nucleation score was 0.329 ± 0.68.

VGWGAMQGLMSGGLYIPV: the amyloid nucleation score was -0.671 ± 2.1.

VGYEVLSHYDAGIVSLVYLS had an amyloid nucleation score of 0.645 ± 0.53.

In turn, VHAHVSREIFTGQ had an amyloid nucleation score of 0.659 ± 1.

For VHASYIVRIRHLSGILEGAV, the amyloid nucleation score was determined as 0.369 ± 0.46.

In turn, VHESTSHRMWRSLI displayed an amyloid nucleation score of 1.15 ± 0.41.

VHFQYFLMLKLAQFVVVWNK displayed an amyloid nucleation score of 0.669 ± 0.84.

As to VHGGAWLTGGSRTGAQFIAV, the amyloid nucleation score is -0.402 ± 0.59.

Regarding VIFSNWVTAGFACFMHLLVR, the amyloid nucleation score was found to be 0.398 ± 0.9.

Turning to VIGLVLARLYFVQIEVLLHR, the amyloid nucleation score amounted to 1.24 ± 0.61.

For VIKMFRRSDDIVVSKPLRE, the amyloid nucleation score was -0.3 ± 0.5.

Take VILLILNYYSHWDVLLK: the amyloid nucleation score is -0.111 ± 0.4.
